Publication doi:10.1101/306035

Legend:
[1] = target: DcaP lacking 40 residues at the N-terminus of the mature protein (DcaP_(DN40)) (Acinetobacter baumannii (strain AB307-0294)); test: SEC
[2] = target: barrel-only DcaP lacking the first 59 residues (DcaP_(Trunc)) (Acinetobacter baumannii (strain AB307-0294)); test: SEC
[3] = target: full-length DcaP from Acinetobacter baumannii AB307-0294 (DcaPfl) (Acinetobacter baumannii (strain AB307-0294)); test: single channel electrophysiology in planar lipid bilayers
[4] = target: full-length DcaP from Acinetobacter baumannii AB307-0294 (DcaPfl) (Acinetobacter baumannii (strain AB307-0294)); test: SEC
[5] = target: seleno-methionine substituted DcaP_(DN40) with L280M and L282M (Acinetobacter baumannii (strain AB307-0294)); test: crystal structure

Substance: DcaP lacking 40 residues at the N-terminus of the mature protein (DcaP_(DN40)) (domain or fragment)
- stoichiometry N [1]: 3

Substance: barrel-only DcaP lacking the first 59 residues (DcaP_(Trunc)) (domain or fragment)
- stoichiometry N [2]: 3

Substance: full-length DcaP from Acinetobacter baumannii AB307-0294 (DcaPfl) (natural protein)
- stoichiometry N [3]: 3
- stoichiometry N [4]: 3

Substance: seleno-methionine substituted DcaP_(DN40) with L280M and L282M (domain or fragment)
- stoichiometry N [5]: 3
